{
  "source": "paper PMC9496542",
  "about": "“The Ni(II)-Binding Activity of the Intrinsically Disordered Region of Human NDRG1, a Protein Involved in Cancer Development” (Biomolecules, 2022)",
  "proteins": {"B1": {"name": "full-length human NDRG1 (N-terminal Strep-tagged, recombinant) (natural protein)", "chain": "not shown", "notes": "No cleavage of the tag is described for the full-length protein; also called hNDRG1; N-myc downstream-regulated gene 1 protein; source: E. coli BL21-CodonPlus (DE3) RiL, purified (StrepTrap HP, Superdex 200)"}, "B2": {"name": "endogenous hNDRG1 in HeLa cells (natural protein)", "chain": "not shown", "notes": "human NDRG1, endogenous protein of HeLa cells, detected with an antibody against the N-terminal region of NDRG1; source: endogenous, HeLa lysate"}, "B3": {"name": "endogenous hNDRG1 in A549 cells (natural protein)", "chain": "not shown", "notes": "human NDRG1, endogenous protein of the lung carcinoma-derived A549 cells, detected by Western blot with anti-NDRG1; source: endogenous, A549 lysate"}},
  "key": {"[1]": {"target": "the molecule itself", "test": "SEC-MALS; SEC-MALS-QELS; hNDRG1 300 uL at 140 uM on Superdex 200 10/300 GL; 20 mM HEPES pH 7.5, 150 mM NaCl, 1 mM TCEP; room temperature, 0.5 mL/min; without or with Ni(II); SEC also run with 10 mM DTT; monomer, dimer and tetramer in equilibrium"}, "[2]": {"target": "the molecule itself", "test": "SDS-PAGE under nondenaturing conditions with Western blot; HeLa cells untreated or treated with 1 mM NiSO4 for 24 h; lysed under nondenaturing conditions; lysates in native sample buffer; blot with an antibody against the N-terminal region of NDRG1"}, "[3]": {"target": "the molecule itself", "test": "SDS-PAGE under nondenaturing conditions with Western blot; A549 cells untreated or treated with 1 mM NiSO4 for two days; total lysates and nuclear extracts; Western blot with anti-NDRG1"}},
  "note": "Several values for one entry are separate records, joined by “and”; a condition that tells them apart may be missing. Equal entries are not always repeated.",
  "data": [
    {"protein": "B1", "values": [
      {"measurement": "stoichiometry N", "setting": "[1]", "result": "4 and 2"}
    ]},
    {"protein": "B2", "values": [
      {"measurement": "stoichiometry N", "setting": "[2]", "result": "2 and 4"}
    ]},
    {"protein": "B3", "values": [
      {"measurement": "stoichiometry N", "setting": "[3]", "result": 4}
    ]}
  ]
}
